This experiment addresses pyruvate kinase isoform M2 (PKM2) (human (endogenous in U1 and U937)) (UniProt P14618). Description: native gel or EMSA.

pyruvate kinase isoform M2 (PKM2), P14618 1-531 (natural protein; other documents disagree on this pair), sequence (P14618 whole entry, canonical isoform): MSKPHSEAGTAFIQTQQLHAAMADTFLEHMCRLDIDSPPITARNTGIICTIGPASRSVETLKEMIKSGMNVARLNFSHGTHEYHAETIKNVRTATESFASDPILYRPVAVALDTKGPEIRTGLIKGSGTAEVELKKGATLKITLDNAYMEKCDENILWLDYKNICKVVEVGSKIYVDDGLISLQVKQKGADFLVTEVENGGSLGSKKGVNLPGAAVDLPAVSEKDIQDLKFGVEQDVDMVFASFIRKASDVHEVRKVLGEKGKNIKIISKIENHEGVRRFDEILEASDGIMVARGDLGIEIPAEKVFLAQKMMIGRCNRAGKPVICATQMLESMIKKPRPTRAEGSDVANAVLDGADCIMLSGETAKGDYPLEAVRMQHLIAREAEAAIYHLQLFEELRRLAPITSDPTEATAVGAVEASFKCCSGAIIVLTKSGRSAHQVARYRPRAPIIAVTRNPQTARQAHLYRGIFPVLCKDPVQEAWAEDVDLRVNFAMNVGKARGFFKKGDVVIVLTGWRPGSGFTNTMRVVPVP

With “pyruvate kinase isoform M2 (PKM2), P14618 1-531 (natural protein; other documents disagree on this pair)”, the stoichiometry N (commonly the number of molecules, sites or subunits per partner or assembly) is 2.
